Measured values as given in PMC4174574.

Molecular target: Mcl-1 (myeloid cell leukemia-1), recombinant protein (UniProt Q07820)
Experiment: SPR

Noxa BH3 peptide was tested, and the IC50 was 0.062 µM.
